Patent US20090123452A1 (TORREY PINES INSTITUTE FOR MOLECULAR STUDIES AND CATALYST …, published 2009)

What was measured:
[1] = target: T1, u-PA/IVb (purified two-chain enzyme) (human, UniProt P00749 21-431); test: inhibition kinetics, 2nd order rate constant
T1 construct: F30V/K82E/V159A/E80G/E84K/I89V/K187E (chymotrypsin numbering); Full-length u-PA from COS-1 cells, made two-chain with plasmin-sepharose; also called u-PA/IVb (30, 80, 82, 84, 89, 159, 187)
Source text: (§1) The indirect chromogenic assay as described in Part D above was used to determine the residual enzyme activity remaining as a function of time.
(§2) The rate constants for inhibition of wild-type or mutant u-PA by PAI-1 were under pseudo-first order conditions for an excess of PAI-1 over u-PA as described previously (see e.g., Holmes et al. (1987) Biochemistry, 26: 5133-5140; Beatty et al. (1980) J. Biol. Chem., 255:3931-3934; Madison et al. (1990) PNAS, 87: 3530-3533; Madison et al. (1993) Methods Enzymol., 223:249-271). […] Following incubation, the mixtures were diluted and the residual enzymatic activity was determined in a standard chromogenic assay as set forth in D above. Data were analyzed by plotting In (residual activity/initial activity) versus time and determining the slope of the resulting straight line. […] rate constants were then derived by dividing the slope by the concentration of the inhibitor in the reaction.
(§3) Following preincubation, the mixtures were quenched with an excess of neutralizing anti-PAI antibodies and residual enzymatic activity was measured in the indirect chromogenic assay. The indirect, chromogenic assays were compared with control reactions containing no PAI-1 or to which PAI-1 was added after preincubation and addition of anti-PAI-1 antibody, plasminogen and Spectrozyme PL to the reaction mixture.

[2] = target: T2, u-PA/IVa (purified two-chain enzyme) (human, UniProt P00749 21-431); test: inhibition kinetics, 2nd order rate constant
T2 construct: F30V/K82E/V159A/E80G/I89V/K187E (chymotrypsin numbering); Full-length u-PA from COS-1 cells, made two-chain with plasmin-sepharose; also called u-PA/IVa (30, 80, 82, 89, 159, 187)
Source text: as §1, §2, §3

[3] = target: T3, u-PA/Ic (purified two-chain enzyme) (human, UniProt P00749 21-431); test: inhibition kinetics, 2nd order rate constant
T3 construct: F30V (chymotrypsin numbering); Full-length u-PA from COS-1 cells, made two-chain with plasmin-sepharose; also called u-PA/Ic (30)
Source text: as §1, §2, §3

[4] = target: T4, u-PA/IIIb (purified two-chain enzyme) (human, UniProt P00749 21-431); test: inhibition kinetics, 2nd order rate constant
T4 construct: F30V/K82E/T39A/V159A (chymotrypsin numbering); Full-length u-PA from COS-1 cells, made two-chain with plasmin-sepharose; also called u-PA/IIIb (30, 39, 82, 159)
Source text: as §1, §2, §3

[5] = target: T5, u-PA/IIIa (purified two-chain enzyme) (human, UniProt P00749 21-431); test: inhibition kinetics, 2nd order rate constant
T5 construct: F30V/K82E/V159A (chymotrypsin numbering); Full-length u-PA from COS-1 cells, made two-chain with plasmin-sepharose; also called u-PA/IIIa (30, 82, 159)
Source text: as §1, §2, §3

[6] = target: T6, u-PA/IIb (purified two-chain enzyme) (human, UniProt P00749 21-431); test: inhibition kinetics, 2nd order rate constant
T6 construct: F30V/K82E (chymotrypsin numbering); Full-length u-PA from COS-1 cells, made two-chain with plasmin-sepharose; also called u-PA/IIb (30, 82)
Source text: as §1, §2, §3

u-PA/IIb (phage) = u-PA/IIb (phage) (human, UniProt P00749 179-431); test: phage display selection: stable complex with His-tagged PAI-1/69 bait captured on Cu-sepharose; increased sensitivity against PAI-1/69
Procedure: (§4) In brief, 5 μl (˜2×10¹² to ˜1×10¹³) u-PA phage, containing an equal representation of u-PA phage from all three u-PA phage libraries (0.2, 0.5 and 0.9% mutagenesis frequency), was mixed with 5 μl bait substrate (from 0.1 to 1.0 μM PAI-1/RRAR or PAI-1/69) and 10 μl 10× indirect buffer pH 7.4 (0.5 M Tris, 1.0 M NaCl, 10 mM EDTA, 0.1% Tween 80) in a total volume of 100 μl (i.e. reaction contained 80 μl H₂O).
(§5) The u-PA phage-PAI-1 inhibitor complexes were captured using CuSO₄ activated sepharose. Pre-activation of the chelating sepharose (200 μl; Pharmacia) was accomplished by treatment with CuSO₄ (100 mM). The CuSO₄ activated sepharose was blocked with 0.5% BSA in PBS buffer for 1 hour at room temperature. 100 μl of BSA blocked sepharose beads was added to 100 μl of the above panning mixture reaction in the presence of 800 μl of binding buffer (0.5 M NaCl, 20 mM Tris, 20 mM immidozole, pH7.4) to capture the His-tagged PAI-1 inhibitor-u-PA phage complexes. The incubation was continued for another 1 hour at room temperature. Next, the panning mixture was centrifuged for 1 min at 2000 rpm and the sepharose beads containing bound u-PA phage-PAI-1 inhibitor complexes were washed with 1 ml of binding buffer to remove unbound phages. The washing step was repeated 5-10 times and the beads containing bound complexes were transferred to new tubes after each wash to avoid any potential “carry over” of non-specific phages.

u-PA/IIc (phage) = u-PA/IIc (phage) (human, UniProt P00749 179-431); test: as above
Procedure: as §4, §5

u-PA/IIa (phage) = u-PA/IIa (phage) (human, UniProt P00749 179-431); test: as above
Procedure: as §4, §5

u-PA/Ib (phage) = u-PA/Ib (phage) (human, UniProt P00749 179-431); test: as above
Procedure: as §4, §5

u-PA/IVa (phage) = u-PA/IVa (phage) (human, UniProt P00749 179-431); test: as above
Procedure: as §4, §5

u-PA/IVb (phage) = u-PA/IVb (phage) (human, UniProt P00749 179-431); test: as above
Procedure: as §4, §5

u-PA/Ia (phage) = u-PA/Ia (phage) (human, UniProt P00749 179-431); test: as above
Procedure: as §4, §5

u-PA/IIIc (phage) = u-PA/IIIc (phage) (human, UniProt P00749 179-431); test: as above
Procedure: as §4, §5

u-PA/Id (phage) = u-PA/Id (phage) (human, UniProt P00749 179-431); test: as above
Procedure: as §4, §5

u-PA/IIIb (phage) = u-PA/IIIb (phage) (human, UniProt P00749 179-431); test: as above
Procedure: as §4, §5

u-PA/IIId (phage) = u-PA/IIId (phage) (human, UniProt P00749 179-431); test: as above
Procedure: as §4, §5

u-PA/IIIa (phage) = u-PA/IIIa (phage) (human, UniProt P00749 179-431); test: as above
Procedure: as §4, §5

u-PA/Ic (phage) = u-PA/Ic (phage) (human, UniProt P00749 179-431); test: as above
Procedure: as §4, §5

Measured: binding result

B1: mutant PAI-1/69 inhibitor (other)
chain: VHHPPSYVAHLASDFGVRVFQQVAQASKDRNVVFSPYGVASVLAMLQLTTGGETQQQIQAAMGFKIDDKGMAPALRHLYKELMGPWNKDEISTTDAIFVQRDLKLVQGFMPHFFRLFRSTVKQVDFSEVERARFIINDWVKTHTKGMISNLLGKGAVDQLTRLVLVNALYFNGQWKTPFPDSSTHRRLFHKSDGSTVSVPMMAQTNKFNYTEFTTPDGHYYDILELPYHGDTLSMFIAAPYEKEVPLSALTNILSAQLISHWKGNMTRLPRLLVLPKFSLETEVDLRKPLENLGMTDMFRQFQADFTSLSDQEPLHVAQALQKVKIEVNESGTVASSSTAVIPFGRSAPEEIIMDRPFLFVVRHNPTGTVLFMGQVMEP
notes: not shown: N-terminal poly histidine residues from the pPAIST7HS vector
binds: [1] | [2] | [3] | [4] | [5] | [6] | u-PA/IIb (phage) | u-PA/IIc (phage) | u-PA/IIa (phage) | u-PA/Ib (phage) | u-PA/IVa (phage) | u-PA/IVb (phage) | u-PA/Ia (phage) | u-PA/IIIc (phage) | u-PA/Id (phage) | u-PA/IIIb (phage) | u-PA/IIId (phage) | u-PA/IIIa (phage) | u-PA/Ic (phage)
